This note sets out measurements from article PMC12358912, “NIPBL and STAG1 enable loop extrusion by providing differential DNA–cohesin affinity” (Proceedings of the National Academy of Sciences of the …, 2024).

Usually Kd stands for the free concentration of one partner at which half of the binding sites on the other are occupied at equilibrium, for simple one-to-one binding.

The target of assay [1] is T1, SMC1/SMC3/SCC1 cohesin Trimer (UniProt Q14683 1-1233; Q9UQE7 1-1217; O60216 1-631).
T1 construct: SMC1 subunit of the cohesin Trimer; SMC3 subunit of the cohesin Trimer; kleisin SCC1 (also known as RAD21 or Mcd1) of the cohesin Trimer; also called the cohesin Trimer; Trimer (SMC1/SMC3/SCC); copies: + +
The assay can be described thus: mass photometry; in solution; KD from evaluating the individual mass distributions of the STAG1 and cohesin Trimer mixtures directly (single-shot). Conditions: both partners purified.

Assay [2] concerns the target T1, SMC1/SMC3/SCC1 cohesin Trimer. The assay can be described thus: mass photometry; in solution; titration at constant cohesin Trimer (50 nM total protein, 12.6 ± 0.9 nM effective Trimer), STAG1 3 to 30 nM, six concentrations with 3 technical repeats each; incubated to equilibrium; molar fraction of the complex fitted to the Hill equation. The settings on record: both partners purified.

T1 sequence (Q14683 whole entry, chain 1 of 3): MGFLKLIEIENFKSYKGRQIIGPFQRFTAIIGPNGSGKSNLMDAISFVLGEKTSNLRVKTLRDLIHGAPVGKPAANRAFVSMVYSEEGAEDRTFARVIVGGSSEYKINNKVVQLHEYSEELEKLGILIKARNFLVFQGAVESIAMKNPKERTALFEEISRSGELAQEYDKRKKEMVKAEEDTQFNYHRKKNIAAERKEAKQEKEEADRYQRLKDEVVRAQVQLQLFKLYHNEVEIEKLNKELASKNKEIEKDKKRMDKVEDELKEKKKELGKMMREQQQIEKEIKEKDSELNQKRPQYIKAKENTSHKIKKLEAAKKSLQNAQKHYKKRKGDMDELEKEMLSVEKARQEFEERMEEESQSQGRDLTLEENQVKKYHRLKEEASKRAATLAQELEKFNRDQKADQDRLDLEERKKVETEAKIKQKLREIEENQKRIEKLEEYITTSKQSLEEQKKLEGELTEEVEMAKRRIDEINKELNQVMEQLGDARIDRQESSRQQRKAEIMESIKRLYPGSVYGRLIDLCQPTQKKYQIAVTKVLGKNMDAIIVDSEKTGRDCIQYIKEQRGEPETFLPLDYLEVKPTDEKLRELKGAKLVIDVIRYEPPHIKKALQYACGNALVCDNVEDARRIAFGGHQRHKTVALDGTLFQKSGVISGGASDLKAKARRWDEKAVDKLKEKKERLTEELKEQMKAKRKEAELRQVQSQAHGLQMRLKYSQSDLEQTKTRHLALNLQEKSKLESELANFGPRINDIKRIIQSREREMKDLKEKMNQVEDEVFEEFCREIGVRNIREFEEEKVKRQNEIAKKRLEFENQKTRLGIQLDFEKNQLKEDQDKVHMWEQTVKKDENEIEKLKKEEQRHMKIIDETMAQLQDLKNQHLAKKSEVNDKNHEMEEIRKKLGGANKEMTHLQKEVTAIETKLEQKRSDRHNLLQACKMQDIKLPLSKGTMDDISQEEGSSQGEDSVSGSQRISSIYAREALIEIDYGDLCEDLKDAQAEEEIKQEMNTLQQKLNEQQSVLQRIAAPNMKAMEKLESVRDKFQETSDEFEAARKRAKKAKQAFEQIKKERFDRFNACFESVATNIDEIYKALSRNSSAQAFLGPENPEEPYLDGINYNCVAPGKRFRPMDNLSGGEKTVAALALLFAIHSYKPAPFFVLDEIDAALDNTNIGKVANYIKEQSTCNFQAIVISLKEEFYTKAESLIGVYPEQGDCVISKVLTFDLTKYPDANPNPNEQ
T1 sequence (Q9UQE7 whole entry, chain 2 of 3): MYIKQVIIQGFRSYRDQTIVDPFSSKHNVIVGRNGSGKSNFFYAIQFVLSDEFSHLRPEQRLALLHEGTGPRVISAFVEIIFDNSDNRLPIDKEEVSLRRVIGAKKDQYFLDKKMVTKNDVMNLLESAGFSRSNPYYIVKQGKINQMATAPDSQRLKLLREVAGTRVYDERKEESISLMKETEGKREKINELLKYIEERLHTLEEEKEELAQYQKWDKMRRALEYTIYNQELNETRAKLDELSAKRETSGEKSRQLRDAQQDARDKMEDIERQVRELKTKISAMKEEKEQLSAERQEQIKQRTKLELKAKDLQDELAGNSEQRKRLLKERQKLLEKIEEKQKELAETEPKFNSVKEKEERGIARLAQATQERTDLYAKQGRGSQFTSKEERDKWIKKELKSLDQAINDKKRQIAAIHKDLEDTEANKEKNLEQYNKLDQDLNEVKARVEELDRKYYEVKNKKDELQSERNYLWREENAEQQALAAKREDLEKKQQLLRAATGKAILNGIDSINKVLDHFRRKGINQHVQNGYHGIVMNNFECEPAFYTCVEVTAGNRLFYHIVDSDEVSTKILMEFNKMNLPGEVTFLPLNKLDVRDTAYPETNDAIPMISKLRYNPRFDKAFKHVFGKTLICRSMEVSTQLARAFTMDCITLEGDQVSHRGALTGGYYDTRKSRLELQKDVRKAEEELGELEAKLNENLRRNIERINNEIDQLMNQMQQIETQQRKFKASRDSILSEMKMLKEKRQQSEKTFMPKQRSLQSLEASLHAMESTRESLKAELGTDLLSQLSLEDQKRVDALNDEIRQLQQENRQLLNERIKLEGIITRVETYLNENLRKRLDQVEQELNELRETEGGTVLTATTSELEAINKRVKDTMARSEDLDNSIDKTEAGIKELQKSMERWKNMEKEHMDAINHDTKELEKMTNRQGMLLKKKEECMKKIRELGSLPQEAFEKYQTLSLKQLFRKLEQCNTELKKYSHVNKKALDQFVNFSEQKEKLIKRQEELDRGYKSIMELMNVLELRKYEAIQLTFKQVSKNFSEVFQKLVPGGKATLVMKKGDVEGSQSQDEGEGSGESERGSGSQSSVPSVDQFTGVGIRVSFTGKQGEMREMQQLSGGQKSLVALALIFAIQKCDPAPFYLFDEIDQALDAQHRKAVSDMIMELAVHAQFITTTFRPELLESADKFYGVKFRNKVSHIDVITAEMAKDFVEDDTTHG
T1 sequence (O60216 whole entry, chain 3 of 3): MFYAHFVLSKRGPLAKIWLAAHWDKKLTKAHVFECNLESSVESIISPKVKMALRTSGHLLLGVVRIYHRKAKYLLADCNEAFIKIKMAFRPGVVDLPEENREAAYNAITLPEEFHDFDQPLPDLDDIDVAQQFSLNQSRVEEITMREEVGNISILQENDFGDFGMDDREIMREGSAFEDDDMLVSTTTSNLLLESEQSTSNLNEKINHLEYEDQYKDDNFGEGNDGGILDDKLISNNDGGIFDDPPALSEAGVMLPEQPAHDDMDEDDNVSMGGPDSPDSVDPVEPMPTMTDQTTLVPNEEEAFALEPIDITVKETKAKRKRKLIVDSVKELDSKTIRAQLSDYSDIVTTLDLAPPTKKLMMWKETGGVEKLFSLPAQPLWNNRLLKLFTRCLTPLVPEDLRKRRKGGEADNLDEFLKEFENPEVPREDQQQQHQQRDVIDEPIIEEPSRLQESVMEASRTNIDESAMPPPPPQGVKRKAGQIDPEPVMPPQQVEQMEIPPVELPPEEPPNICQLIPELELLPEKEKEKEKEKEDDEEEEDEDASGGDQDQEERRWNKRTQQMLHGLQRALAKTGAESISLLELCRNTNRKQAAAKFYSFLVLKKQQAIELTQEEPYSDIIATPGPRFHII

B1: STAG1 (natural protein, human, UniProt Q8WVM7 1-1258, looked up)
chain: MITSELPVLQDSTNETTAHSDAGSELEETEVKGKRKRGRPGRPPSTNKKPRKSPGEKSRIEAGIRGAGRGRANGHPQQNGEGEPVTLFEVVKLGKSAMQSVVDDWIESYKQDRDIALLDLINFFIQCSGCRGTVRIEMFRNMQNAEIIRKMTEEFDEDSGDYPLTMPGPQWKKFRSNFCEFIGVLIRQCQYSIIYDEYMMDTVISLLTGLSDSQVRAFRHTSTLAAMKLMTALVNVALNLSIHQDNTQRQYEAERNKMIGKRANERLELLLQKRKELQENQDEIENMMNSIFKGIFVHRYRDAIAEIRAICIEEIGVWMKMYSDAFLNDSYLKYVGWTLHDRQGEVRLKCLKALQSLYTNRELFPKLELFTNRFKDRIVSMTLDKEYDVAVEAIRLVTLILHGSEEALSNEDCENVYHLVYSAHRPVAVAAGEFLHKKLFSRHDPQAEEALAKRRGRNSPNGNLIRMLVLFFLESELHEHAAYLVDSLWESSQELLKDWECMTELLLEEPVQGEEAMSDRQESALIELMVCTIRQAAEAHPPVGRGTGKRVLTAKERKTQIDDRNKLTEHFIITLPMLLSKYSADAEKVANLLQIPQYFDLEIYSTGRMEKHLDALLKQIKFVVEKHVESDVLEACSKTYSILCSEEYTIQNRVDIARSQLIDEFVDRFNHSVEDLLQEGEEADDDDIYNVLSTLKRLTSFHNAHDLTKWDLFGNCYRLLKTGIEHGAMPEQIVVQALQCSHYSILWQLVKITDGSPSKEDLLVLRKTVKSFLAVCQQCLSNVNTPVKEQAFMLLCDLLMIFSHQLMTGGREGLQPLVFNPDTGLQSELLSFVMDHVFIDQDEENQSMEGDEEDEANKIEALHKRRNLLAAFSKLIIYDIVDMHAAADIFKHYMKYYNDYGDIIKETLSKTRQIDKIQCAKTLILSLQQLFNELVQEQGPNLDRTSAHVSGIKELARRFALTFGLDQIKTREAVATLHKDGIEFAFKYQNQKGQEYPPPNLAFLEVLSEFSSKLLRQDKKTVHSYLEKFLTEQMMERREDVWLPLISYRNSLVTGGEDDRMSVNSGSSSSKTSSVRNKKGRPPLHKKRVEDESLDNTWLNRTDTMIQTPGPLPAPQLTSTVLRENSRPMGDQIQEPESEHGSEPDFLHNPQMQISWLGQPKLEDLNRKDRTGMNYMKVRTGVRHAVRGLMEEDAEPIFEDVMMSSRSQLEDMNEEFEDTMVIDLPPSRNRRERAELRPDFFDSAAIIEDDSGFGMPMF
notes: human STAG1, a HAWK subunit of cohesin; measured at 148 ± 2 kDa by mass photometry; also called Scc3
Consider B1, for which the Kd turned out to be 5.4 ± 1.7 nM in assay [1] and 6.2 ± 0.7 nM in assay [2].
